PMC9482650, “Quantitative fragmentomics allow affinity mapping of interactomes” (Nature Communications, 2022)

T1: APBA2_2, Q99767
T1 sequence (Q99767 654-744, limits assumed, looked up): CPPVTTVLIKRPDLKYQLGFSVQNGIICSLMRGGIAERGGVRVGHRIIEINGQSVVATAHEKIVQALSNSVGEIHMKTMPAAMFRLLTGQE

T2: APBA3_1, O96018
T2 sequence (O96018 389-490, limits assumed, looked up): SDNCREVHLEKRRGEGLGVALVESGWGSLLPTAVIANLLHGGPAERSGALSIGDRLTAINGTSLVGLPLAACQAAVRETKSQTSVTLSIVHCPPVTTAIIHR

T3: CARD11, Q9BXL7
T3 sequence (Q9BXL7 662-765, limits assumed, looked up): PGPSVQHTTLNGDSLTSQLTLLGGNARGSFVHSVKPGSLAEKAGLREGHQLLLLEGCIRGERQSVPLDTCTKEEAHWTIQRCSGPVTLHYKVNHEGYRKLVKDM

T4: DLG3_1, Q92796
T4 sequence (Q92796 125-227, limits assumed, looked up): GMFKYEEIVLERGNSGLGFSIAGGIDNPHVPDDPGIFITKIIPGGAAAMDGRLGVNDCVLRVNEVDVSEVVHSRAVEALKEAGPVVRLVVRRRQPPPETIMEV

T5: DVL3, Q92997
T5 sequence (Q92997 244-331, limits assumed, looked up): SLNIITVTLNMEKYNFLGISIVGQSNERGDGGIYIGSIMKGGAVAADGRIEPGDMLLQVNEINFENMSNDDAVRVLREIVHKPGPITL

T6: GRIP1_5, Q9Y3R0
T6 sequence (Q9Y3R0 568-668, limits assumed, looked up): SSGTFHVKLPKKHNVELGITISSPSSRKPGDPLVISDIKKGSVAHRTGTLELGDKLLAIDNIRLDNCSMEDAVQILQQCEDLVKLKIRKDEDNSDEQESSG

T7: PDZD7_3, Q9H5P4
T7 sequence (Q9H5P4 857-944, limits assumed, looked up): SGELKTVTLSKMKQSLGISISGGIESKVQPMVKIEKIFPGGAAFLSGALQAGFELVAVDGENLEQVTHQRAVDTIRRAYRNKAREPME

T8: SHANK1, Q9Y566
T8 sequence (Q9Y566 658-767, limits assumed, looked up): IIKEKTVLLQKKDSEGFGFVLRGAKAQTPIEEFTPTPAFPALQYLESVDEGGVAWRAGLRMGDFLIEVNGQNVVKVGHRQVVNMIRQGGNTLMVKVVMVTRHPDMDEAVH

T9: SIPA1L2, Q9P2F8
T9 sequence (Q9P2F8 945-1036, limits assumed, looked up): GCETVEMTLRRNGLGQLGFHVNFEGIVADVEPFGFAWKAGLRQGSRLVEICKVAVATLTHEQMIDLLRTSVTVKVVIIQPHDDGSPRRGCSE

T10: SNTA1, Q13424
T10 sequence (Q13424 82-180, limits assumed, looked up): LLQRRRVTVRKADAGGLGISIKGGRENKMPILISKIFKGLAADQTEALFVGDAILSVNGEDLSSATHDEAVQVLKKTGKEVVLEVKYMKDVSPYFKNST

T11: SNTB1, Q13884
T11 sequence (Q13884 107-205, limits assumed, looked up): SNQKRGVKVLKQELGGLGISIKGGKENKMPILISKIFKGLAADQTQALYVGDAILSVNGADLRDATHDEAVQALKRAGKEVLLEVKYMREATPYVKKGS

T12: SYNJ2BP, P57105
T12 sequence (P57105 8-110, limits assumed, looked up): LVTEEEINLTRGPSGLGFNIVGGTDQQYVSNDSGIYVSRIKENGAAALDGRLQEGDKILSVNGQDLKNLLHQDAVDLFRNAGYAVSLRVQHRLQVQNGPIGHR

T13: TJP3_3, O95049
T13 sequence (O95049 375-456, limits assumed, looked up): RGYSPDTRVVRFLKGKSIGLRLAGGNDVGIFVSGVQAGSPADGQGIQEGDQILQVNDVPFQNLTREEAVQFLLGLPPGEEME

B1: EFNB1, P52799 (peptide)
chain: QSPANIYYKV
B2: ADAM22, Q9P0K1 (peptide)
chain: QSARLWETSI
B3: FLVCR1, Q9Y5Y0 (peptide)
chain: MLSKQSESAI
B4: GHRHR, Q02643 (peptide)
chain: SAAKVLTSMC

The binders below were run against T1, APBA2_2, Q99767 (assay: holdup assay). Details: plain residues with an end cap or a label only (N-terminal biotin on a linker: ado-ado).
Parameters: key: below the threshold = too weak to quantify, mostly under pKd 3.1 to 4

Row | pKd | Binder
1 | below the threshold | B1
2 | below the threshold | B2
3 | below the threshold | B3
4 | below the threshold | B4

Each binder was assayed against T2, APBA3_1, O96018 (assay: holdup assay). Details: plain residues with an end cap or a label only (N-terminal biotin on a linker: ado-ado).
Parameters: key: below the threshold = too weak to quantify, mostly under pKd 3.1 to 4

Row | pKd | Binder
5 | below the threshold | B1
6 | below the threshold | B2
7 | below the threshold | B3
8 | below the threshold | B4

What follows are binders tested against T3, CARD11, Q9BXL7 (assay: holdup assay). Details: plain residues with an end cap or a label only (N-terminal biotin on a linker: ado-ado).
Parameters: key: below the threshold = too weak to quantify, mostly under pKd 3.1 to 4

Row | pKd | Binder
9 | below the threshold | B1
10 | below the threshold | B2
11 | below the threshold | B3
12 | below the threshold | B4

The binders below were run against DLG1_1, Q12959 (assay: holdup assay). Details: plain residues with an end cap or a label only (N-terminal biotin on a linker: ado-ado).
Parameters: key: below the threshold = too weak to quantify, mostly under pKd 3.1 to 4

Row | pKd | Binder
13 | below the threshold | B1
14 | 4.21 | B2
15 | below the threshold | B3
16 | below the threshold | B4

These binders were tested against T4, DLG3_1, Q92796 (assay: holdup assay). Details: plain residues with an end cap or a label only (N-terminal biotin on a linker: ado-ado).
Parameters: key: below the threshold = too weak to quantify, mostly under pKd 3.1 to 4

Row | pKd | Binder
17 | below the threshold | B1
18 | below the threshold | B2
19 | below the threshold | B3
20 | below the threshold | B4

The binders below were run against DLG5_1, Q8TDM6 (assay: holdup assay). Details: plain residues with an end cap or a label only (N-terminal biotin on a linker: ado-ado).
DLG5_1, Q8TDM6, sequence (Q8TDM6 617-713): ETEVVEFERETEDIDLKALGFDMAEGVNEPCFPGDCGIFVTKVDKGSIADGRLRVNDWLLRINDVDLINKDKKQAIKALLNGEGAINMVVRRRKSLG
Parameters: key: below the threshold = too weak to quantify, mostly under pKd 3.1 to 4

Row | pKd | Binder
21 | below the threshold | B1
22 | below the threshold | B2
23 | below the threshold | B3
24 | below the threshold | B4

Each binder was assayed against T5, DVL3, Q92997 (assay: holdup assay). Details: plain residues with an end cap or a label only (N-terminal biotin on a linker: ado-ado).
Parameters: key: below the threshold = too weak to quantify, mostly under pKd 3.1 to 4

Row | pKd | Binder
25 | below the threshold | B1
26 | below the threshold | B2
27 | below the threshold | B3
28 | below the threshold | B4

What follows are binders tested against GRID2IP_2, A4D2P6 (assay: holdup assay). Details: plain residues with an end cap or a label only (N-terminal biotin on a linker: ado-ado).
GRID2IP_2, A4D2P6, sequence (A4D2P6 272-370): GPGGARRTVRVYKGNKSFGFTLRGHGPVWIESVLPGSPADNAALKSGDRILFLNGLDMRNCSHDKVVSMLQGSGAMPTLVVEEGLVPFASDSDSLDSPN
Parameters: key: below the threshold = too weak to quantify, mostly under pKd 3.1 to 4

Row | pKd | Binder
29 | below the threshold | B1
30 | 4.3 | B2
31 | below the threshold | B3
32 | 4.38 | B4

These binders were tested against T6, GRIP1_5, Q9Y3R0 (assay: holdup assay). Details: plain residues with an end cap or a label only (N-terminal biotin on a linker: ado-ado).
Parameters: key: below the threshold = too weak to quantify, mostly under pKd 3.1 to 4

Row | pKd | Binder
33 | below the threshold | B1
34 | below the threshold | B2
35 | below the threshold | B3
36 | below the threshold | B4

These binders were tested against GRIP2_4, Q9C0E4 (assay: holdup assay). Details: plain residues with an end cap or a label only (N-terminal biotin on a linker: ado-ado).
GRIP2_4, Q9C0E4, sequence (Q9C0E4 446-548): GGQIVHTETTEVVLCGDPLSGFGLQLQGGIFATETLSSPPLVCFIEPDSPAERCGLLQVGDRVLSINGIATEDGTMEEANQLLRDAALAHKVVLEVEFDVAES
Parameters: key: below the threshold = too weak to quantify, mostly under pKd 3.1 to 4

Row | pKd | Binder
37 | below the threshold | B1
38 | below the threshold | B2
39 | below the threshold | B3
40 | below the threshold | B4

Each binder was assayed against HTRA1, Q92743 (assay: holdup assay). Details: plain residues with an end cap or a label only (N-terminal biotin on a linker: ado-ado).
HTRA1, Q92743, sequence (Q92743 360-477): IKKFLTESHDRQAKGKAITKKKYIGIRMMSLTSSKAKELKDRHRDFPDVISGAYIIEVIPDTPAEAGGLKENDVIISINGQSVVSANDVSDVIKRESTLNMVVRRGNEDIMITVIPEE
Parameters: key: below the threshold = too weak to quantify, mostly under pKd 3.1 to 4

Row | pKd | Binder
41 | 4.37 | B1
42 | 3.92 | B2
43 | below the threshold | B3
44 | 3.55 | B4

The binders below were run against Inadl_4, Q8NI35 (assay: holdup assay). Details: plain residues with an end cap or a label only (N-terminal biotin on a linker: ado-ado).
Inadl_4, Q8NI35, sequence (Q8NI35 547-651): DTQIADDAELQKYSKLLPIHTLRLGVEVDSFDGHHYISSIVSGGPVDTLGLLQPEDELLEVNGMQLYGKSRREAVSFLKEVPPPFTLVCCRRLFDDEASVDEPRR
Parameters: key: below the threshold = too weak to quantify, mostly under pKd 3.1 to 4

Row | pKd | Binder
45 | below the threshold | B1
46 | below the threshold | B2
47 | below the threshold | B3
48 | below the threshold | B4

The binders below were run against Inadl_6, Q8NI35 (assay: holdup assay). Details: plain residues with an end cap or a label only (N-terminal biotin on a linker: ado-ado).
Inadl_6, Q8NI35, sequence (Q8NI35 1058-1167): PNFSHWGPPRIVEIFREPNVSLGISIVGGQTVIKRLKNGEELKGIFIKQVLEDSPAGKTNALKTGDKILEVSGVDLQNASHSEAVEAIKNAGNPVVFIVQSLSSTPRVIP
Parameters: key: below the threshold = too weak to quantify, mostly under pKd 3.1 to 4

Row | pKd | Binder
49 | below the threshold | B1
50 | 4.06 | B2
51 | below the threshold | B3
52 | below the threshold | B4

These binders were tested against MAGI2_5, Q86UL8 (assay: holdup assay). Details: plain residues with an end cap or a label only (N-terminal biotin on a linker: ado-ado).
MAGI2_5, Q86UL8, sequence (Q86UL8 915-1017): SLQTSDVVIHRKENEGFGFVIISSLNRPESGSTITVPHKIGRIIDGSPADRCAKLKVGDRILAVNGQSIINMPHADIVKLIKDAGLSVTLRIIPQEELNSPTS
Parameters: key: below the threshold = too weak to quantify, mostly under pKd 3.1 to 4

Row | pKd | Binder
53 | below the threshold | B1
54 | 3.7 | B2
55 | below the threshold | B3
56 | 4.36 | B4

Each binder was assayed against MAGI2_6, Q86UL8 (assay: holdup assay). Details: plain residues with an end cap or a label only (N-terminal biotin on a linker: ado-ado).
MAGI2_6, Q86UL8, sequence (Q86UL8 1141-1229): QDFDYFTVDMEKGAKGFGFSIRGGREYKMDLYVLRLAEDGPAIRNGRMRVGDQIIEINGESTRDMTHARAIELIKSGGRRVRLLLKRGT
Parameters: key: below the threshold = too weak to quantify, mostly under pKd 3.1 to 4

Row | pKd | Binder
57 | below the threshold | B1
58 | 4.22 | B2
59 | below the threshold | B3
60 | below the threshold | B4

These binders were tested against MAST1, Q9Y2H9 (assay: holdup assay). Details: plain residues with an end cap or a label only (N-terminal biotin on a linker: ado-ado).
MAST1, Q9Y2H9, sequence (Q9Y2H9 962-1065): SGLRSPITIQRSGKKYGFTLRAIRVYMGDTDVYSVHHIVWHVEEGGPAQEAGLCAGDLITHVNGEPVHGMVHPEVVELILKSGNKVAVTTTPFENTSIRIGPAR
Parameters: key: below the threshold = too weak to quantify, mostly under pKd 3.1 to 4

Row | pKd | Binder
61 | 3.93 | B1
62 | 4.92 | B2
63 | 4.18 | B3
64 | below the threshold | B4

Each binder was assayed against PDLIM1, O00151 (assay: holdup assay). Details: plain residues with an end cap or a label only (N-terminal biotin on a linker: ado-ado).
PDLIM1, O00151, sequence (O00151 1-87): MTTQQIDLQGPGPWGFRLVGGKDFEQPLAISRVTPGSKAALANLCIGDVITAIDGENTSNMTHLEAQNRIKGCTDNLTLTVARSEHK
Parameters: key: below the threshold = too weak to quantify, mostly under pKd 3.1 to 4

Row | pKd | Binder
65 | below the threshold | B1
66 | below the threshold | B2
67 | below the threshold | B3
68 | below the threshold | B4

Each binder was assayed against T7, PDZD7_3, Q9H5P4 (assay: holdup assay). Details: plain residues with an end cap or a label only (N-terminal biotin on a linker: ado-ado).
Parameters: key: below the threshold = too weak to quantify, mostly under pKd 3.1 to 4

Row | pKd | Binder
69 | below the threshold | B1
70 | 5.16 | B2
71 | 3.78 | B3
72 | 4.7 | B4

Each binder was assayed against SCRIB_2, Q14160 (assay: holdup assay). Details: plain residues with an end cap or a label only (N-terminal biotin on a linker: ado-ado).
SCRIB_2, Q14160, sequence (Q14160 857-960): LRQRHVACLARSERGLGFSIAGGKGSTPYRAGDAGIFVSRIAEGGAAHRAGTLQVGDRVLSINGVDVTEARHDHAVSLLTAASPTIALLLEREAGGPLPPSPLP
Parameters: key: below the threshold = too weak to quantify, mostly under pKd 3.1 to 4

Row | pKd | Binder
73 | below the threshold | B1
74 | 4.71 | B2
75 | 3.55 | B3
76 | below the threshold | B4

Each binder was assayed against T8, SHANK1, Q9Y566 (assay: holdup assay). Details: plain residues with an end cap or a label only (N-terminal biotin on a linker: ado-ado).
Parameters: key: below the threshold = too weak to quantify, mostly under pKd 3.1 to 4

Row | pKd | Binder
77 | below the threshold | B1
78 | 3.72 | B2
79 | below the threshold | B3
80 | 3.89 | B4

The binders below were run against T9, SIPA1L2, Q9P2F8 (assay: holdup assay). Details: plain residues with an end cap or a label only (N-terminal biotin on a linker: ado-ado).
Parameters: key: below the threshold = too weak to quantify, mostly under pKd 3.1 to 4

Row | pKd | Binder
81 | below the threshold | B1
82 | below the threshold | B2
83 | below the threshold | B3
84 | below the threshold | B4

Each binder was assayed against T10, SNTA1, Q13424 (assay: holdup assay). Details: plain residues with an end cap or a label only (N-terminal biotin on a linker: ado-ado).
Parameters: key: below the threshold = too weak to quantify, mostly under pKd 3.1 to 4

Row | pKd | Binder
85 | below the threshold | B1
86 | 4.49 | B2
87 | 3.73 | B3
88 | below the threshold | B4

The binders below were run against T11, SNTB1, Q13884 (assay: holdup assay). Details: plain residues with an end cap or a label only (N-terminal biotin on a linker: ado-ado).
Parameters: key: below the threshold = too weak to quantify, mostly under pKd 3.1 to 4

Row | pKd | Binder
89 | below the threshold | B1
90 | 4.69 | B2
91 | 3.68 | B3
92 | 3.53 | B4

What follows are binders tested against T12, SYNJ2BP, P57105 (assay: holdup assay). Details: plain residues with an end cap or a label only (N-terminal biotin on a linker: ado-ado).
Parameters: key: below the threshold = too weak to quantify, mostly under pKd 3.1 to 4

Row | pKd | Binder
93 | below the threshold | B1
94 | 5.2 | B2
95 | 4.52 | B3
96 | 3.59 | B4

Each binder was assayed against T13, TJP3_3, O95049 (assay: holdup assay). Details: plain residues with an end cap or a label only (N-terminal biotin on a linker: ado-ado).
Parameters: key: below the threshold = too weak to quantify, mostly under pKd 3.1 to 4

Row | pKd | Binder
97 | below the threshold | B1
98 | below the threshold | B2
99 | below the threshold | B3
100 | below the threshold | B4
